# Test results from paper PMC4742998.
# Molecular target: complement component 9 (C9) (human)
# Test: cryo-EM structure; monomeric C9 polymerised in solution by overnight incubation at 1 mg/ml and 37 °C; single-particle cryo-EM of soluble poly-C9, 22-fold symmetry applied during refinement, about 5,000 particles, 8 Å
substance,measurement,value
complement component 9 (C9) (natural protein),stoichiometry N,22
